Among the data in patent US20040048790A1 (published 2004) are IC50 values, retold here.

Non-standard residues stand in square brackets, D forms with d. No end group written: not given here. Abu = CC[C@H](N)C(=O)O

First the molecules themselves.
B1: p53.240 (9-mer SSBMGGMNK) (peptide)
peptide: SS[Abu]MGGMNK
B2: p53.102.F10 (peptide)
peptide: TYQGSYGFRF
B3: p53.249.F1I9 (peptide)
peptide: FPILTIITI
B4: p53.249.F1 (peptide)
peptide: FPILTIITL
B5: p53.88.F1 (peptide)
peptide: FPSWPLSSSV
B6: p53.127.F1I8 (peptide)
peptide: FPALNKMI
B7: p53.76.F1 (9-mer) (peptide)
peptide: FPAAPTPAA
B8: p53.79.F118 (peptide)
peptide: FPTPAAPI
B9: p53.74.F1 (10-mer) (peptide)
peptide: FPAPAAPTPA
B10: p53.70.F1110 (peptide)
peptide: FPPVAPAPAI
B11: p53.86.F118 (peptide)
peptide: FPAPSWPI
B12: p53.76.F1 (11-mer) (peptide)
peptide: FPAAPTPAAPA
B13: p53.74.F1 (11-mer) (peptide)
peptide: FPAPAAPTPAA
B14: p53.63.F1111 (peptide)
peptide: FPRMPEAAPPI
B15: p53.88.F1110 (peptide)
peptide: FPSWPLSSSI
B16: p53.33.F1 (peptide)
peptide: FPLPSQAI
B17: p53.86.F1 (peptide)
peptide: FPAPSWPL
B18: p53.84.F1 (peptide)
peptide: FPAPAPSWPL
B19: p53.84.F1110 (peptide)
peptide: FPAPAPSWPI
B20: p53.63F1 (peptide)
peptide: FPRMPEAAPPV
B21: p53.135B1B7 (peptide)
peptide: [Abu]QLAKT[Abu]PV
B22: p53.135B1L2B7 (peptide)
peptide: [Abu]LLAKT[Abu]PV

The target of the first experiment is HLA-A*6801 (human). As to the kind of experiment: 125I-probe peptide inhibition, purified HLA.
A word on the IC50: it is the concentration at which inhibition is half-maximal. Read a low IC50 as inhibition by little substance. The molecule B1 had an IC50 of 140 nM. That is a sub-micromolar value.

In another experiment the target is HLA-A*2402 (human). Nature of the experiment: competition vs 125I probe peptide, purified HLA.
With B2, the IC50 was 30 nM.

A further experiment concerns the target HLA-B*0702 (human). As to the kind of experiment: competition vs 125I probe peptide, purified HLA.
For the molecule B3, the IC50 is 74 nM.
Still for that read-out and setting: the value for B4 was 6.5 nM.

The target in a further experiment is HLA-B*5401 (human). As to the kind of experiment: competition vs 125I probe peptide, purified HLA.
Consider B3, for which the 50% inhibitory concentration (IC50) was determined as 1.8 nM.
On the same count and under the same terms, the value for B4 was 5 nM; that for B5 was 0.3 nM.

For a further experiment, the target named is HLA-B*5101 (human). As to the kind of experiment: competition vs 125I probe peptide, purified HLA.
B3 came in with an IC50 of 9 nM.
On the same count and under the same terms, the value for B6 was 220 nM.

For a further experiment, the target named is HLA-B*5301 (human). Nature of the experiment: competition vs 125I probe peptide, purified HLA.
Molecule B3 displayed an IC50 of 4 nM. This counts as single-digit nanomolar.
Take B5: the IC50 stood at 93 nM.

For another experiment, the target named is HLA-B*5101 (human). As to the kind of experiment: 125I-probe peptide inhibition, purified HLA.
Consider B7, for which the IC50 worked out at 809 nM. In other words, the sub-micromolar range.

A further experiment has as its target HLA-B*0702 (human). As to the kind of experiment: 125I-probe peptide inhibition, purified HLA.
Consider B8, for which half-maximal inhibition (IC50) required 90 nM.
On the same count and under the same terms, the value for B9 was 0.8 nM.
B10 came in with a half-maximal inhibitory concentration (IC50) of 290 nM. Against the preceding molecule, the IC50 is about 360-fold higher.
On the same count and under the same terms, the value for B11 was 120 nM.
Still for that read-out and setting: the value for B12 was 34 nM; that for B13 was 87 nM.

Another experiment concerns the target HLA-B*5301 (human). As to the kind of experiment: 125I-probe peptide inhibition, purified HLA.
On to B7, for which inhibition was half-maximal at 620 nM (IC50).
As for B14, half-maximal inhibition (IC50) was put at 5470 nM. This IC50 lies about 8.8-fold higher than the previous one.
B15: the IC50 amounted to 8.5 nM.
In turn, B8 showed an IC50 of 6200 nM.
The same measure, in the same setting: the value for B16 was 291 nM; that for B11 was 3.3 nM; that for B17 was 4 nM.

The target of the next experiment is HLA-B*3501 (human). Nature of the experiment: 125I-probe peptide inhibition, purified HLA.
Consider B18, for which it took 5.1 nM to reach half-maximal inhibition (IC50).
On the same count and under the same terms, the value for B9 was 28 nM; that for B16 was 720 nM.
Same read-out and setting: the value for B11 was 4.8 nM; that for B17 was 3.1 nM.

In the next experiment the target is HLA-B*5401 (human). As to the kind of experiment: 125I-probe peptide inhibition, purified HLA.
Molecule B19 showed an IC50 of 1.2 nM. This lies in the single-digit nanomolar range.
On the same count and under the same terms, the value for B18 was 1.7 nM; that for B7 was 1 nM; that for B14 was 2.9 nM.
Molecule B20 yielded an IC50 of 0.3 nM.
The same measure, in the same setting: the value for B15 was 2.4 nM.
On the same count and under the same terms, the value for B8 was 7.7 nM; that for B9 was 1.1 nM.
The molecule B10 displayed an IC50 of 63 nM. Compared with the last molecule, the IC50 is about 57-fold higher.
B16: the IC50 is 83 nM.
The same measure, in the same setting: the value for B11 was 1.6 nM; that for B17 was 9.1 nM.
As to B12, 1.3 nM corresponded to half-maximal inhibition (IC50).
The same measure, in the same setting: the value for B13 was 2.1 nM.

For another experiment, the target named is HLA-A*0206 (human). As to the kind of experiment: 125I-probe peptide inhibition, purified HLA.
With B21, the IC50 was found to be 67 nM.

The target of the next experiment is HLA-A*0206 (human). Nature of the experiment: 125I-probe peptide inhibition, purified HLA. This is another data set of the same source.
For B22, the IC50 came to 64 nM.

Another experiment has as its target HLA-A*0203 (human). Nature of the experiment: 125I-probe peptide inhibition, purified HLA.
For B22, the IC50 was 7.7 nM.
